{
  "source": "patent US20080139477",
  "target": "Flag-tagged collagen type III fusion protein (Flag-helix-C-tel-C-pro) expressed from YEpFlagCOLIII1.6 kb (UniProt P02461)",
  "sequence (P02461 other isoform, or with tags, fused parts or gaps)": "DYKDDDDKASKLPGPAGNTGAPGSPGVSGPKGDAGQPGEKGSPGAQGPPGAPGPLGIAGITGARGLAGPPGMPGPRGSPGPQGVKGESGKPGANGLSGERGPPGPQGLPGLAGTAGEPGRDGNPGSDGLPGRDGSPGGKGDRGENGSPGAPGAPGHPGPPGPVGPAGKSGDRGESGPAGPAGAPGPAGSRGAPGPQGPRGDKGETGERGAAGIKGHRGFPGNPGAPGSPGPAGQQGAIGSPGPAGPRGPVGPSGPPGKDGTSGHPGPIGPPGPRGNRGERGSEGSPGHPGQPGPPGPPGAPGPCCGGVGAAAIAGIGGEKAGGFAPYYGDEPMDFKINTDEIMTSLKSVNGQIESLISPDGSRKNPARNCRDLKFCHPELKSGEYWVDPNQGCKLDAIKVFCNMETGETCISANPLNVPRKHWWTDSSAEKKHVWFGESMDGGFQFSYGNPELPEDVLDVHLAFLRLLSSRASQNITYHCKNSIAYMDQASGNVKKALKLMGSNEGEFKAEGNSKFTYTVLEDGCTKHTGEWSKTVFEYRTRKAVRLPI",
  "data": [
    {"substance": "prolyl-4-hydroxylase (P4H, α2β2) expressed from pYEUra3.2.12β#39α#5", "values": [
      {"measurement": "hydroxyproline by amino acid analysis of the 60 kDa band", "result": "Amino acid analysis revealed the presence of hydroxyproline in this material from co-transformants ... after induction with 0.2% galactose but no hydroxyproline was detected with protein from control samples"}
    ]}
  ]
}
